The values below come from publication PMC4783868 (Nature, 2015).

The target of this assay is T1, PB2 subunit of the influenza C/Johannesburg/1/1966 virus polymerase (FluPolC) (influenza C/Johannesburg/1/1966 virus, UniProt Q9IMP3).
T1 sequence: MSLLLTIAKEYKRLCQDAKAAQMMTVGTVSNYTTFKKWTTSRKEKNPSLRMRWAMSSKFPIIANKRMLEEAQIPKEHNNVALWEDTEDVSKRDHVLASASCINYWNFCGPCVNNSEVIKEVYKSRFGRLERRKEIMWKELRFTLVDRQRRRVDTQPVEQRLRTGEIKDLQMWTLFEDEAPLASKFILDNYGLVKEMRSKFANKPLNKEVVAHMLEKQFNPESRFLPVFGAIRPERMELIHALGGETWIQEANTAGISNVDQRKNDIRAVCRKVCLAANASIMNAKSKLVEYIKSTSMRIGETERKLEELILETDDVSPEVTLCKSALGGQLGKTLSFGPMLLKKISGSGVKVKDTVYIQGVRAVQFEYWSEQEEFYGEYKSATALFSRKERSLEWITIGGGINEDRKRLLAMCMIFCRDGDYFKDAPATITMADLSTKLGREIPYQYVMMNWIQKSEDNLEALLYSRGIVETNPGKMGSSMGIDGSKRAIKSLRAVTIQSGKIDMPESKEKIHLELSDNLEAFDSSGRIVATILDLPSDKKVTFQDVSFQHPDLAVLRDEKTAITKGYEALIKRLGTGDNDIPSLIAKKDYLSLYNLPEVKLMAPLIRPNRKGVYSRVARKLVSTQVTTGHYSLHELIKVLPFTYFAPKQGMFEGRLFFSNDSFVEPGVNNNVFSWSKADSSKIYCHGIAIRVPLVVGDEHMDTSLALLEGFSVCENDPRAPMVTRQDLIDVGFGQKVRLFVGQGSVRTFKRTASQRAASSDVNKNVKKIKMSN
Nature of the assay: crystal structure.

B1: P3 subunit of the influenza C/Johannesburg/1/1966 virus polymerase (FluPolC) (natural protein)
chain: MSKTFAEIAEAFLEPEAVRIAKEAVEEYGDHERKIIQIGIHFQVCCMFCDEYLSTNGSDRFVLIEGRKRGTAVSLQNELCKSYDLEPLPFLCDIFDREEKQFVEIGITRKADDSYFQSKFGKLGNSCKIFVFSYDGRLDKNCEGPMEEQKLRIFSFLATAADFLRKENMFNEIFLPDNEETIIEMKKGKTFLELRDESVPLPFQTYEQMKDYCEKFKGNPRELASKVSQMQSNIKLPIKHYEQNKFRQIRLPKGPMAPYTHKFLMEEAWMFTKISDPERSRAGEILIDFFKKGNLSAIRPKDKPLQGKYPIHYKNLWNQIKAAIADRTMVINENDHSEFLGGIGRASKKIPEISLTQDVITTEGLKQSENKLPEPRSFPRWFNAEWMWAIKDSDLTGWVPMAEYPPADNELEDYAEHLNKTMEGVLQGTNCAREMGKCILTVGALMTECRLFPGKIKVVPIYARSKERKSMQEGLPVPSEMDCLFGICVKSKSHLNKDDGMYTIITFEFSIREPNLEKHQKYTVFEAGHTTVRMKKGESVIGREVPLYLYCRTTALSKIKNDWLSKARRCFITTMDTVETICLRESAKAEENLVEKTLNEKQMWIGKKNGELIAQPLREALRVQLVQQFYFCIYNDSQLEGFCNEQKKILMALEGDKKNKSSFGFNPEGLLEKIEECLINNPMCLFMAQRLNELVIEASKRGAKFFKTD
Take B1: the binding result is reported as “binds”.

B2: PB1 subunit of the influenza C/Johannesburg/1/1966 virus polymerase (FluPolC) (natural protein)
chain: MEINPYLMFLNNDVTSLISTTYPYTGPPPMSHGSSTKYTLETIKRTYDYSRTSVEKTSKVFNIPRRKFCNCLEDKDELVKPTGNVDISSLLGLAEMMEKRMGEGFFKHCVMEAETEILKMHFSRLTEGRQTYDWTSERNMPAATALQLTVDAIKETEGPFKGTTMLEYCNKMIEMLDWKEIKFKKVKTVVRREKDKRSGKEIKTKVPVMGIDSIKHDEFLIRALTINTMAKDGERGKLQRRAIATPGMIVRPFSKIVETVAQKICEKLKESGLPVGGNEKKAKLKTTVTSLNARMNSDQFAVNITGDNSKWNECQQPEAYLALLAYITKDSSDLMKDLCSVAPVLFCNKFVKLGQGIRLSNKRKTKEVIIKAEKMGKYKNLMREEYKNLFEPLEKYIQKDVCFLPGGMLMGMFNMLSTVLGVSTLCYMDEELKAKGCFWTGLQSSDDFVLFAVASNWSNIHWTIRRFNAVCKLIGINMSLEKSYGSLPELFEFTSMFFDGEFVSNLAMELPAFTTAGVNEGVDFTAAMSIIKTNMINNSLSPSTALMALRICLQEFRATYRVHPWDSRVKGGRMKIINEFIKTIENKDGLLIADGGKLMNNISTLHIPEEVLKFEKMDEQYRNRVFNPKNPFTNFDKTIDIFRAHGPIRVEENEAVVSTHSFRTRANRTLLNTDMRAMMAEEKRYQMVCDMFKSVFESADINPPIGAMSIGEAIEEKLLERAKMKRDIGAIEDSEYEEIKDIIRDAKKARLESR
Regarding B2, the binding result was “binds”.
